# Data: article PMC8281565
# Molecular target: histone H3 (UniProt P68431)
# Experiment: co-immunoprecipitation (IP with SV40 antibody, WB, densitometry)
# Conditions: nuclear extracts from transfected HCT116 cells; three different experiments; parent: est. 1.0; read off a plot
substance,measurement,value
SV40 Large T antigen wild type (from UniProt P03070) S106A; S111A; S112G,ratio to parent,0.61
